Test results published in publication PMC11984713.

Molecular target: FLAG-SpbK (Bacillus subtilis (ICEBs1))

fold decrease in cellular levels of NAD^+ 15 to 30 minutes after induction of yonE in cells expressing spbK (untagged proteins): 100 fold
Substance: YonE-Myc (natural protein)
